Test results published in patent US20220049236A1 (YEDA RESEARCH AND DEVELOPMENT, published 2022).

How the values were obtained:
[1] = molecular target: T1, LOX catalytic domain (catalytic domain of human LOX, 169-417) (human, UniProt P28300 170-417); experiment: ELISA, plate coated with LOX catalytic domain
T1 construct: Expressed from pET28 in E. coli BL21 SHuffle, purified on HisTrap and labelled through its His tag for MST
T1 sequence: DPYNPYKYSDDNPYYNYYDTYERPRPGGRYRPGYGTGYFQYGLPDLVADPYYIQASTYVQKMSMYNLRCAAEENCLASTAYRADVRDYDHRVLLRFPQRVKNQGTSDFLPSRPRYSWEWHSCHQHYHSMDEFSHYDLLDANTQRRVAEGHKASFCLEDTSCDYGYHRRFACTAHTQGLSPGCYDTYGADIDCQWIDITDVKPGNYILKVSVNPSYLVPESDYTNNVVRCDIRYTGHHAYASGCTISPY
Protocol: A ninety-six-well plate (Nunc) was coated with LOX-catalytic domain, HSP70 or BSA at 10 μg/mL. After blocking with 2% BSA in PBS, the plate was incubated with Fc and Fc-LPD for 1 hour at 37° C. Bound antibodies were detected by peroxidase-conjugated antibody goat anti-human (Jackson ImmunoResearch). EC₅₀ was calculated with GraphPad Prism from […] curve fitting analysis.
The pYD5-Fc-LPD plasmid was used as a template in order to create point mutations in the three N-glycosylated sites N81, 97, 144 in the LPD, which are the N346, 362, 409 in our Fc-LPD construct with Q SEQ ID NO: 11. The mutations were performed with site-directed mutagenesis according to kit manufacturer instructions. EC₅₀ of generated Fc-LPD N346, 362, 409Q inhibitor was measured by ELISA (FIG. 1C) ranged from 10 to 2000 nM against the LOX catalytic domain (EC₅₀=58 nmol/L).

Filaggrin-2 = molecular target: T2, Filaggrin-2 (human, UniProt Q5D862 1-2391, limits assumed); experiment: IP from HDF supernatant, LFQ mass spectrometry; ratio against Fc control
T2 construct: also called FLG2

Hornerin = molecular target: T3, Hornerin (human, UniProt Q86YZ3 1-2850, limits assumed); experiment: as above
T3 construct: also called HRNR

[2] = molecular target: T4, Heat shock 70 kDa protein 1A/B (human, UniProt P0DMV9 2-641); experiment: as above
T4 construct: also called Heat shock 70 kDa protein 1B; HSPA1B

[3] = molecular target: T5, Heat shock protein HSP 90-alpha (human, UniProt P07900 2-732); experiment: as above
T5 construct: also called HSP90AA1

[4] = molecular target: T6, Heat shock cognate 71 kDa protein (human, UniProt P11142 2-646); experiment: as above
T6 construct: also called HSPA8

[5] = molecular target: T7, Heat shock protein HSP 90-beta (human, UniProt P08238 2-724); experiment: as above
T7 construct: also called HSP90AB1

[6] = molecular target: T8, 60 kDa heat shock protein, mitochondrial (human, UniProt P10809 27-573, limits assumed); experiment: as above
T8 construct: also called HSPD1; HSP60
T8 sequence (P10809 27-573 limits assumed): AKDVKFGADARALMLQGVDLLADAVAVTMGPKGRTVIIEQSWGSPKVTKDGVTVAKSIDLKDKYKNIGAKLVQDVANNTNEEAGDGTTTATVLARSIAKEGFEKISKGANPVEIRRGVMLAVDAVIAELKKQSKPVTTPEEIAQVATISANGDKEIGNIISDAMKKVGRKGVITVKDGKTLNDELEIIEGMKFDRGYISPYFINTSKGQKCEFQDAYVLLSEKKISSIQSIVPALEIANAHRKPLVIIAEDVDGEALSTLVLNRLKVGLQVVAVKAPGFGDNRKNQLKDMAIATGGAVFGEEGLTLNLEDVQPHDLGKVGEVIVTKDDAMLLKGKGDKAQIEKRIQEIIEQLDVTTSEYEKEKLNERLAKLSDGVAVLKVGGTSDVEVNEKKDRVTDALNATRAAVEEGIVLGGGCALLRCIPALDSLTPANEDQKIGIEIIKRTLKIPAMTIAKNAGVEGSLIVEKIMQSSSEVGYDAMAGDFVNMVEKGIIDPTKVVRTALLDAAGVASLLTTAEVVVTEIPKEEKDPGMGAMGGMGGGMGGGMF

T2 sequence (Q5D862 whole entry): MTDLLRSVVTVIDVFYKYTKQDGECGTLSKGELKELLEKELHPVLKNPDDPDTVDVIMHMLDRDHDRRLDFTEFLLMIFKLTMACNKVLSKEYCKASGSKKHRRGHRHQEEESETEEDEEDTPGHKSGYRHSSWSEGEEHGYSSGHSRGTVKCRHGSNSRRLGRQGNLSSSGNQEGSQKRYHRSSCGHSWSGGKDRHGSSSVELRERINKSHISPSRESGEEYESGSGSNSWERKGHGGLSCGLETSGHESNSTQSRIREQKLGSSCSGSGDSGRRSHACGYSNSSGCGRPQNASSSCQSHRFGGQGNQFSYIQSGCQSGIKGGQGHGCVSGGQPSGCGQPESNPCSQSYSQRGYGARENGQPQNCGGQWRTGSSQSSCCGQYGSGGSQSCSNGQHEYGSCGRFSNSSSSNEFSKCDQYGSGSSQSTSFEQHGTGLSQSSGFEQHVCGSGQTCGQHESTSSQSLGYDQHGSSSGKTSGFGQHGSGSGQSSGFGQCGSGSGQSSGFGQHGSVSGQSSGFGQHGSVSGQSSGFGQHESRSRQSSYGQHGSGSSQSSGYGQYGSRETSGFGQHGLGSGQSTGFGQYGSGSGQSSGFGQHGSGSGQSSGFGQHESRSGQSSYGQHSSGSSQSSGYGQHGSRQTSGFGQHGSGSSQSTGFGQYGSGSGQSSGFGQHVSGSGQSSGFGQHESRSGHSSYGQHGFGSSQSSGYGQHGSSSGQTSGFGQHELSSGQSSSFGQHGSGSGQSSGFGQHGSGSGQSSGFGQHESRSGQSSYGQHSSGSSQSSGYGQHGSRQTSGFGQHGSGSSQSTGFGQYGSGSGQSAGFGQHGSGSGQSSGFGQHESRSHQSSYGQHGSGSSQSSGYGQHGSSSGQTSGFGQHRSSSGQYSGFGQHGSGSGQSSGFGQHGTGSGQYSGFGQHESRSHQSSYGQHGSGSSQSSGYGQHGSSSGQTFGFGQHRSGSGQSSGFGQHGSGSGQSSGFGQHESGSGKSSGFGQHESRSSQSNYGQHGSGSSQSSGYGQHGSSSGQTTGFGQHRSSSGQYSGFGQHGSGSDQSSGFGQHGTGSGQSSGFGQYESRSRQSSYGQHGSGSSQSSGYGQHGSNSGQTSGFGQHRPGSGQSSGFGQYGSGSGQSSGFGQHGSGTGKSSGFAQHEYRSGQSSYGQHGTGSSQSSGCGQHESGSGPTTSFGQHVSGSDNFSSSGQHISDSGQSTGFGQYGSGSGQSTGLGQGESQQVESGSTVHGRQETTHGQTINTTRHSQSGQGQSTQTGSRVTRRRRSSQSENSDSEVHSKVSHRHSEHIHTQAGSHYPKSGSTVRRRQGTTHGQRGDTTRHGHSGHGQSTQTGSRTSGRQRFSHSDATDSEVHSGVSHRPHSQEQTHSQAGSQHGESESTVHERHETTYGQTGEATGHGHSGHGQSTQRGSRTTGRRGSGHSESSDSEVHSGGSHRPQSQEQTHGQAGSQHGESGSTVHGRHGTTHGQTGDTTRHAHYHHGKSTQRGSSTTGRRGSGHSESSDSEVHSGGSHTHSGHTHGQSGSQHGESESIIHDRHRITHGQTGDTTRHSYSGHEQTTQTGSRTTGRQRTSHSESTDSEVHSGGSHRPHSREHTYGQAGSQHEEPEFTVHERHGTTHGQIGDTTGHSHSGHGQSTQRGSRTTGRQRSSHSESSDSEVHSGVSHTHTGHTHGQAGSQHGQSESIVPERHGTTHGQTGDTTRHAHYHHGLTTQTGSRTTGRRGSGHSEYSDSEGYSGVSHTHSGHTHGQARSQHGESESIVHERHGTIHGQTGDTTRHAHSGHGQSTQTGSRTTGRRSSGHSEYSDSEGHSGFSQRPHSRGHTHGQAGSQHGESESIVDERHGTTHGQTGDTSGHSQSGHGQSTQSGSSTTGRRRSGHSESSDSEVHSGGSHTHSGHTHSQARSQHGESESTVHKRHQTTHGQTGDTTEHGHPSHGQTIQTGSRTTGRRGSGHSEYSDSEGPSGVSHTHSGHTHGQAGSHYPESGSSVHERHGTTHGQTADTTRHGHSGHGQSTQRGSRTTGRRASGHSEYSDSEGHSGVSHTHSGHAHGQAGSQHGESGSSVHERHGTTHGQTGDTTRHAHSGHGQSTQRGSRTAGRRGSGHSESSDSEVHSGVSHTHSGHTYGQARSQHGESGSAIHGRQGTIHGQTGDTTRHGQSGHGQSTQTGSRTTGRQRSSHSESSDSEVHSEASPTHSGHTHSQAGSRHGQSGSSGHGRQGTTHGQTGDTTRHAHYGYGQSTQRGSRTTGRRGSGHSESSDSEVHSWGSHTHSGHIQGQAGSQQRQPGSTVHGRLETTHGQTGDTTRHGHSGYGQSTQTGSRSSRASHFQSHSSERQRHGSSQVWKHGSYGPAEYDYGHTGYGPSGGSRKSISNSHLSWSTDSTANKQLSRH
T7 sequence (P08238 2-724 limits assumed): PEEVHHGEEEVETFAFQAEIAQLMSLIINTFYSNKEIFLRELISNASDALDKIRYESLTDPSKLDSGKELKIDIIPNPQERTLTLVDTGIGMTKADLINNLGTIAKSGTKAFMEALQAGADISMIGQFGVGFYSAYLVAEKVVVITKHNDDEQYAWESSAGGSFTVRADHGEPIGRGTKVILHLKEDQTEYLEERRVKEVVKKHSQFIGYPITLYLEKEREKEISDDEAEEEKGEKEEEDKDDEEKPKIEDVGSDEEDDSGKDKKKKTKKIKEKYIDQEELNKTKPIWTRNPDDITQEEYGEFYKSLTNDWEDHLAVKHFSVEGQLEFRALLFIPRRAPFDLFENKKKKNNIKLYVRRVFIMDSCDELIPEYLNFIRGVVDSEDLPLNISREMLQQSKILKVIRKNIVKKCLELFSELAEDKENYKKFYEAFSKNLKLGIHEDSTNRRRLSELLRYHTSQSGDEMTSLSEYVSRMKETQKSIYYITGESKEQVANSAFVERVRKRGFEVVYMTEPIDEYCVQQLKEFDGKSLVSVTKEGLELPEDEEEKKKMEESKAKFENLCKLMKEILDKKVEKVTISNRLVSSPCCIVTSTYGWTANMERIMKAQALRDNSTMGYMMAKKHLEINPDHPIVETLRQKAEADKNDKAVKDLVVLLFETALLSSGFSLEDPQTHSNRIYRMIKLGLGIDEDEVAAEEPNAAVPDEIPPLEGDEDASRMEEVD
T6 sequence (P11142 2-646 limits assumed): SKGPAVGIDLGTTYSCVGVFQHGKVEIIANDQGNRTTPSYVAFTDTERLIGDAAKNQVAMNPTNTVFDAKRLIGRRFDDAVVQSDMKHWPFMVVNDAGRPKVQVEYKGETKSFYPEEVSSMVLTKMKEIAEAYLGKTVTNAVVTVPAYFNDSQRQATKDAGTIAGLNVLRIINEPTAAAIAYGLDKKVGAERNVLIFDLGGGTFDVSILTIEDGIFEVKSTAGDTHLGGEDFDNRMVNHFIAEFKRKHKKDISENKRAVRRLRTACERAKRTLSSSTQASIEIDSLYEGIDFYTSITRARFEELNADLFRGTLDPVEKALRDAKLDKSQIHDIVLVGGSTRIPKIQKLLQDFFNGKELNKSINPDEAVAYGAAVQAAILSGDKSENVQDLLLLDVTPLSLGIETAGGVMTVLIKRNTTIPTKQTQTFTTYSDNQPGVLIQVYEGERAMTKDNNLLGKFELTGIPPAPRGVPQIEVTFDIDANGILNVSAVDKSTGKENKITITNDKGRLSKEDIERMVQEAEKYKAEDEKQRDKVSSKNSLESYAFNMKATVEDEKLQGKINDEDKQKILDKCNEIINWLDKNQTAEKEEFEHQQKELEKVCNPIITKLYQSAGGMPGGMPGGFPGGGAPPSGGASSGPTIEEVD
T4 sequence (P0DMV9 2-641 limits assumed): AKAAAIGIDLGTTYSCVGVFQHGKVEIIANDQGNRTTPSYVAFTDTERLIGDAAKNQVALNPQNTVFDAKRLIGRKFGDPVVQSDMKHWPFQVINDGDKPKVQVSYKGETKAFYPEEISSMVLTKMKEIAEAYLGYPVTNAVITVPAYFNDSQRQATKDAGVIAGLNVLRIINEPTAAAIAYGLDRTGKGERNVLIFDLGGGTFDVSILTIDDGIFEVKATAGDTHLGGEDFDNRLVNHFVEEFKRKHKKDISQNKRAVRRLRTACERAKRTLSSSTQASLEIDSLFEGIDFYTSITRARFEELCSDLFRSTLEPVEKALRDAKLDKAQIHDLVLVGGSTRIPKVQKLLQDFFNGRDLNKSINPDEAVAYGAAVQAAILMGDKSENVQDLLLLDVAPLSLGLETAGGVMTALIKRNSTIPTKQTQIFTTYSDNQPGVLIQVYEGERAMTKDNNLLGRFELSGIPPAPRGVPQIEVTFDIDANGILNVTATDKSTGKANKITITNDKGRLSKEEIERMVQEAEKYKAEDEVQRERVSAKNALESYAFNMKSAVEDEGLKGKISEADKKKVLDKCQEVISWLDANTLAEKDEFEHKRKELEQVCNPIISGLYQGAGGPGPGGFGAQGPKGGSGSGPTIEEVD

B1: Fc-LPD N346, 362, 409Q (Fc fusion)
chain: APPAAGQQQPPREPPAAPGAWRQQIQWENNGQVFSLLSLGSQYQPQRRRDPGAAVPGAAQASAQQPRTPILLIRDQRTAAARTRTAGSSGVTAGRPRPTARHWFQAGYSTSRAREAGASRAEQQTAPGEVPALSNLRPPSRVDGMVGD
notes: Fc-LPD with the three N-glycosylation sites N81, 97, 144 of the LPD (N346, 362, 409 in the construct) changed to Q by site-directed mutagenesis of pYD5-Fc-LPD; also called non-glycosylated form
Question: Which EC50 [1] does the source give for B1 here?
Answer: Its EC50 is 58 nM.

Question: What about the “Ratio Fc-LPD-N346, 409, 456Q:Fc” value (Filaggrin-2) of the same binder?
Answer: The value was 0.

Question: And the “Ratio Fc-LPD-N346, 409, 456Q:Fc” value (Hornerin)?
Answer: Its value is 0.2.

Question: What about the “Ratio Fc-LPD-N346, 409, 456Q:Fc” value [2] of the same binder?
Answer: The value was 30.

Question: What about the “Ratio Fc-LPD-N346, 409, 456Q:Fc” value [3] of the same binder?
Answer: The value was 0.2.

Question: What about the “Ratio Fc-LPD-N346, 409, 456Q:Fc” value [4] of the same binder?
Answer: The value was 0.9.

Question: And the “Ratio Fc-LPD-N346, 409, 456Q:Fc” value [5]?
Answer: The value was 1.8.

Question: What about the “Ratio Fc-LPD-N346, 409, 456Q:Fc” value [6] of the same binder?
Answer: The value was 0.1.
